The experiment has as its target T1, endogenous AMPylated BiP of CHO-K1 cells (Cricetulus griseus (CHO-K1), UniProt G3I8R9, AMP (threonine 518 is the site the paper names for BiP modified by FICD)).
T1 construct: ER chaperone BiP/Grp-78, endogenous in CHO-K1 cells; also called endogenous BiP-AMP; source: endogenous, CHO-K1 lysate (untreated or treated with CHX 4 h); also after methanol/chloroform precipitation (denatured)
Put plainly: western blot; 20 μg total cell lysate (HEK293, CHO-K1; untreated, TG 2 h or CHX 4 h; in Figure 4A HEK293 lysate spiked with a titration of recombinant BiP-AMP) on the blot, probed with 17G6 in the presence of MnCl2. The note with it: one partner purified.

T1 sequence (G3I8R9 19-654): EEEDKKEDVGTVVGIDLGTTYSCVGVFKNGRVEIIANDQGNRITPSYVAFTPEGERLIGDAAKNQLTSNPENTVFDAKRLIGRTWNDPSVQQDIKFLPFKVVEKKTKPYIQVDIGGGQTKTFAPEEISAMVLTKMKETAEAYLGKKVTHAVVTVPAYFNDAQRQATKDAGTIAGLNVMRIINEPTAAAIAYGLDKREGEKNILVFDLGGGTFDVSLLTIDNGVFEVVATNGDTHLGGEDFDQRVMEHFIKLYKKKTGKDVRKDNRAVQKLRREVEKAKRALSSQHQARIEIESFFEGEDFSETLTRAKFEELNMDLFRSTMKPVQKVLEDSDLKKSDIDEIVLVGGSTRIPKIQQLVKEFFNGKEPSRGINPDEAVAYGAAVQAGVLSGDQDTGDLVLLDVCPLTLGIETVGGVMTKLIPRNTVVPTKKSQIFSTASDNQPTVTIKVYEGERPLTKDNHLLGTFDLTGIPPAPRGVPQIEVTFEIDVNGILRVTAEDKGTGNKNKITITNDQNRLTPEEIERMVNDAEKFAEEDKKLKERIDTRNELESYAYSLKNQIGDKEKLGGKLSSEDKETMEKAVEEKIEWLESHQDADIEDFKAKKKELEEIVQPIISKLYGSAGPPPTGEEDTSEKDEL

B1: monoclonal anti-AMP antibody 17G6 (antibody, V domains shown)
VH: EVQLQQSGPELVKPGASVKISCKASGYTFTDYYLNWVKQSHGKSLEWIGDIHPNKGINKYNQKFKGKATLTVDKSSSTAYMELRSLTSEDSAVYYCARYYGKRYFDVWGTGTMVTVSS
VL: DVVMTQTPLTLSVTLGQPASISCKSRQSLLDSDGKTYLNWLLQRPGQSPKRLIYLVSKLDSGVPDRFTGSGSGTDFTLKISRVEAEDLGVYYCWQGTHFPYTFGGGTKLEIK
notes: Recognises the AMP moiety on modified side chains; no preference for Thr or Tyr; source: mouse hybridoma (C57BL/6, BSA-hapten immunogen); roller bottle cell culture, purified from the supernatant (Protein A); clone supernatant in the selection ELISA
Consider B1, for which the binding result was “binds”.
